From patent publication US7479478B2, “Human parathyroid hormone modifications, preparation and use” (The General Hospital Corporation, priority 1998, dated 2009)
No end group written: not given here.

Columns and labels:
rat PTH-1 receptors = target: T1, rat PTH-1 receptors (Rattus norvegicus, UniProt P25961); assay: PLC activation in COS-7 cells expressing rat PTH-1 receptors; type: cell-based; details: up to 1000 nM
T1 construct: expressed in transfected cells
T1 sequence (P25961 27-591): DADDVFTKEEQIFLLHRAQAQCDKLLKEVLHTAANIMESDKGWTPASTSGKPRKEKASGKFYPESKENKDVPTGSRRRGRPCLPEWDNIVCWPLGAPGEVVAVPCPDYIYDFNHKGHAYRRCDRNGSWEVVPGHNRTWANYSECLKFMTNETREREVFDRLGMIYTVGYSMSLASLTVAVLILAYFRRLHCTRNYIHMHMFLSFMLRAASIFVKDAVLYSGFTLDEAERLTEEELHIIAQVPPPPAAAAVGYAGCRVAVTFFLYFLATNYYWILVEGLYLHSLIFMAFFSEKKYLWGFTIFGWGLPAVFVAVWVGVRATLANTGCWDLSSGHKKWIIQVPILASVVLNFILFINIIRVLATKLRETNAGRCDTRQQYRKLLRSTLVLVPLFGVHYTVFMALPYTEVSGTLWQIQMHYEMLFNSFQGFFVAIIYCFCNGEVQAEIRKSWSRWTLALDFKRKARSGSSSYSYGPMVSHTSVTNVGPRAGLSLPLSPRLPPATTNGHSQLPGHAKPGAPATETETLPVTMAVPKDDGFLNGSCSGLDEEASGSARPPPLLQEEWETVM
Procedure: (§1) HKRK B7 or EW5 cells (32), subclones of LLC-PKI renal epithelial cells that stably express human or rat PTH-1 receptors (950,000 and 320,000 receptors/cell, respectively), were maintained under 5% CO2 in air in Dulbecco's modified essential medium containing 7% fetal bovine serum (FBS) and 1% penicillin/streptomycin (GIBCO-BRL, Grand Island, N.Y.). HEK-293 and COS-7 cells were cultured similarly, except that 10% FBS was used in the medium. Cells were seeded into 24-well plates two days before assay at a density of 2-2.5×10^5 cells/well (HKRK B7 or EW 5 cells) or 6×10^5 cells/well (in 6-well plates) (HEK-293 cells). In experiments involving HEK-293 cells, DNA transfections were performed 24 hr after plating and inositol radiolabel was added 24 hr thereafter (see below). COS-7 cell transfections were performed as previously described (Gardella, T. J., et al., Endocrinology 132(5):2024-2030 (1993))
(§2) PLC was activated by PTH agonists in the presence of 30 mM LiCl at 37° C. for 30 min after 16 hr of labeling with [^3H]myo-inositol (3 uCi/ml) in serum-free medium containing 0.1% bovine serum albumin. The reactions were stopped by rapid aspiration and addition of cold 5% TCA. Water-soluble radiolabeled inositol trisphosphate (IP3) was isolated after ether extraction by ion-exchange chromatography (Guo, J., et al., Endocrinology 136(9):3884-3891 (1995)). […]

human PTH-1 receptors [1] = target: T2, human PTH-1 receptors (Homo sapiens, UniProt Q03431); assay: PLC activation in COS-7 cells expressing human PTH-1 receptors; type: cell-based; details: up to 1000 nM
T2 construct: expressed in transfected cells
T2 sequence (Q03431 27-593): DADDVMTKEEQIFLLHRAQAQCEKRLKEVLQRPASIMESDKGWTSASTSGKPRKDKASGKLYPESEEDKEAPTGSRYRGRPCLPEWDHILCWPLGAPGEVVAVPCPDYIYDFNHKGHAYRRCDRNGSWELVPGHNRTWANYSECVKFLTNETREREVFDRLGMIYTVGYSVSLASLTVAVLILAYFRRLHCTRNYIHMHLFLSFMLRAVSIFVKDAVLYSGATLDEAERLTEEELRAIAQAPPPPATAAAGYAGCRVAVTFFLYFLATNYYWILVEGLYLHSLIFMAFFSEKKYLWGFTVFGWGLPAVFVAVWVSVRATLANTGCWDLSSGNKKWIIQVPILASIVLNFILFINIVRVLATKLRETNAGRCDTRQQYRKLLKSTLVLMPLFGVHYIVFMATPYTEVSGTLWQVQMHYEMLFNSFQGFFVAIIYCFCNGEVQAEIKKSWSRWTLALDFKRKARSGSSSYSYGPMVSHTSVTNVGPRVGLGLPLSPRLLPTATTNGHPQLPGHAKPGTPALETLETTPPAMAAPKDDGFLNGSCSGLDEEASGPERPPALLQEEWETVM
Procedure: as §1, §2

human PTH-1 receptors [2] = target: T2, human PTH-1 receptors; assay: PLC activation (IP3 formation) in HKRK B7 cells; type: cell-based; details: HKRK B7 cells; up to 1000 nM or 10 μM
Procedure: as §1
PLC was activated by PTH agonists in the presence of 30 mM LiCl at 37° C. for 30 min after 16 hr of labeling with [^3H]myo-inositol (3 uCi/ml) in serum-free medium containing 0.1% bovine serum albumin. The reactions were stopped by rapid aspiration and addition of cold 5% TCA. Water-soluble radiolabeled inositol trisphosphate (IP3) was isolated after ether extraction by ion-exchange chromatography (Guo, J., et al., Endocrinology 136(9):3884-3891 (1995)). In experiments involving HEK 293 cells, cells previously transfected with human PTHR cDNA (in the pcDNA1 expression vector HKRK) using Lipofectamine (Gibco BRL) were labeled with [^3H]myo-inositol and assayed as described above, except that total water-soluble [^3H]inositol polyphosphates were collected as a single fraction from the ion-exchange columns.

membrane-bound PKCs = details: osteoblast-like ROS 17/2 cells; Neugebauer et al. 1995; cited from earlier work
human PTH-1 receptors [3] = target: T2, human PTH-1 receptors; details: HKRK B7 cells; Takasu and Bringhurst 1998; cited from earlier work
human PTH-1 receptors [4] = target: T2, human PTH-1 receptors; details: HKRK B7 cells; Takasu and Bringhurst 1998; cited from earlier work; remark: listed apart in the source

Row | Substance | stimulation of activity of membrane-bound PKCs (membrane-bound PKCs) | AC activation, previously reported (human PTH-1 receptors [3]) | PLC activation, previously reported (human PTH-1 receptors [4]) | other results
1 | Human PTH-(3-34): N-truncated human PTH peptide lacking Ser^1-Val^2 (SEIQLMHNLGKHLNSMERVEWLRKKLQDVHNF-NH2; UniProt P01270 34-65, looked up, fragment) | – | – | – | PLC activation, result in words (rat PTH-1 receptors): did not activate PLC; PLC activation, result in words (human PTH-1 receptors [1]): did not activate PLC; PLC activation (IP3 formation), result in words (human PTH-1 receptors [2]): did not activate PLC
2 | SerValSerGluIleGlnLeuMetHisAsnLeuGlyLysHis LeuAsnSerMetGluArgValGluTrpLeuArgLysLys (SVSEIQLMHNLGKHLNSMERVEWLRKK-NH2; listed as Homo sapiens) [hPTH-(1-27)] | incapable of stimulating | – | – | –
3 | hPTH-(1-26): C-truncated human PTH peptide (SVSEIQLMHNLGKHLNSMERVEWLRK) | incapable of stimulating | – | – | –
4 | hPTH-(1-30): C-truncated human PTH peptide (SVSEIQLMHNLGKHLNSMERVEWLRKKLQD-NH2; UniProt P01270 32-61, looked up, fragment) | incapable of stimulating | fully activated | fully activated | –
5 | hPTH-(1-31): C-truncated human PTH peptide | – | fully activated | fully activated | –
